Results from the supplement of paper PMC12764529.
± gives the half width of the 95% confidence interval.

What was measured:
[1] = folding stability dG unfold from chymotrypsin proteolysis; higher = more stable
In short: (§1)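 K50 was inferred by Bayesian fitting of sequencing counts obtained after protease digestion of designed mini-proteins. Unfolding free energy was derived by comparison with a sequence-predicted unfolded-state K50 and a shared folded-state K50, for each protease or both combined. The mini-proteins were under 80 residues, had no cysteine, were carried in a PA-tagged cDNA display construct, and were kept only if AlphaFold2 dimer inter-PAE exceeded 15.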

[2] = folding stability dG unfold from trypsin proteolysis; higher = more stable
In short: as §1

[3] = folding stability dG unfold (combined trypsin and chymotrypsin); higher = more stable
In short: as §1

Sequence | folding stability dG unfold [1] | folding stability dG unfold [2] | folding stability dG unfold [3]
SATLTFTATLPDGSRVLEVTAEPRPDGTVTIRMRAEFTFAPGVTVTVPATITVPVPPPPALPPDDPRLFSAG [r14_95_TrMRF] | 3.33 ± 0.05 kcal/mol | 2.73 ± 0.057 kcal/mol | 3.09 ± 0.086 kcal/mol
SAGGSAGGSAGLPENVKLVKVTVTITYPNGEKETIPVVAPVPVLEKLLSLPGLPVSVTDESAGGSAGGSAGG [r17_313_TrMRF] | 0.0595 ± 0.071 kcal/mol | 0.465 ± 0.028 kcal/mol | 0.333 ± 0.12 kcal/mol
SAGGRYYFVRIEIYNPNNGRPFDIMIPFPGMPAEQVKEQVKEIADELAKQHGMDVKVKVEIQPLPPDSAGGS [r8_185_TrROS] | 2.06 ± 0.07 kcal/mol | 1.73 ± 0.092 kcal/mol | 1.95 ± 0.17 kcal/mol
SAGGSAGGSAGGSMYTLLSTENRPDPNSSKPVTTKTYKLPDGSTVVVTEYPDSVEEKPLVSAGGSAGGSAGG [r7_479_JUSTAS] | -0.122 ± 0.63 kcal/mol | -0.00111 ± 0.087 kcal/mol | 0.182 ± 0.25 kcal/mol
SAGGSAGGSAMPIKYLFPKDKSLEDILDEIIKKTGKPKSEIKNIKLEEIDDEEGFYVAYVESAGGSAGGSAG [r3_26_TrMRF] | 1.13 ± 0.13 kcal/mol | 1.36 ± 0.092 kcal/mol | 1.36 ± 0.22 kcal/mol
SAGGSAGGSMSKPVKITTTRDPNSNVITIQVESEEDVIEFAKKKGINIKIEPTSENTYKLTLESAGGSAGGS [r12_810_JUSTAS] | -0.0494 ± 0.36 kcal/mol | 0.0305 ± 0.079 kcal/mol | 0.113 ± 0.21 kcal/mol
SAMVTARVSDSVLRAYRLPDGYVRLVVFDPKTGEPVVEFVVPEDLITDIVEVGDKAVIHVDVKEEDLKLSAG [r14_755_TrMRF] | 1.98 ± 0.064 kcal/mol | 1.28 ± 0.043 kcal/mol | 1.69 ± 0.077 kcal/mol
SAGWIMINSPEDAERIVEELRKLLPPGYKIDVEPMPNGSVMIEFENPEEGREIKIHYDRRNGMYWIEPVSAG [r5_358_TrROS] | 2.54 ± 0.079 kcal/mol | 2.58 ± 0.13 kcal/mol | 2.59 ± 0.11 kcal/mol
SIINALREALKDGKPGQEIPIMMPPDGMGELMNWLQDYGFKPKKMEPMPMNNRPMYTHEFTIDPKNGKFRSA [r9_498_TrROS] | 0.26 ± 0.26 kcal/mol | -0.0613 ± 0.39 kcal/mol | 0.0967 ± 0.29 kcal/mol
SADLAKNIAKKLNPDIKDVQIKDIELQPNPDNGYPVIKVELEVKMNDGPYKKSIWFMPNGFQIKIQPVPSAG [r14_397_TrROS] | 1.77 ± 0.21 kcal/mol | 0.783 ± 0.17 kcal/mol | 1.44 ± 0.29 kcal/mol
SAEELARRLRELGLEVEIVRIERERRPDGTIRIEVRLDGELVAELEVRLPPPPPPVEVVRDADGRERRVRSA [r9_442_TrROS_Hall] | 1.82 ± 0.4 kcal/mol | 1.63 ± 0.18 kcal/mol | 1.9 ± 0.27 kcal/mol
SGLKPNEVKKFTFSFPVTDPVTGKEVTATVELYVSAGNPFVVVKLTVTPPDGKTETKTFVVPPGATLTIDSA [r9_88_TrMRF] | 3.598 ± 0.028 kcal/mol | 1.73 ± 0.054 kcal/mol | 3.2 ± 0.17 kcal/mol
SAGGEKATVTVVYDPEKGYVVVPVDIPFLDENGKPKKLKLVFVLPASPEAEEAVKELAKELGLESVESAGGS [r8_381_TrMRF] | 2.38 ± 0.059 kcal/mol | 1.37 ± 0.1 kcal/mol | 2.11 ± 0.2 kcal/mol
SAGGSAGGMVTFTVEYESDPALLEKLKEELPGVEILEVKREGPKKTITITIKVPSEEKAKKFLSSAGGSAGG [r6_334_JUSTAS] | 1.16 ± 0.11 kcal/mol | 0.704 ± 0.086 kcal/mol | 1 ± 0.12 kcal/mol
SAGGSAGGSATIWIPVSQIEEFLKQMPPDRIKEVKITYDPEDGWIPVKIPGGREIMIWVPKSAGGSAGGSAG [r3_291_TrROS] | 0.83 ± 0.054 kcal/mol | 1.15 ± 0.029 kcal/mol | 1.06 ± 0.076 kcal/mol
SAGGSAGGSAGGSMSTVFVSTLTLPDPSGLSTVLTTTVEIDPEGNAHPVTSTEEVSAAASAGGSAGGSAGGS [r4_80_JUSTAS] | 0.33 ± 0.089 kcal/mol | 0.716 ± 0.022 kcal/mol | 0.652 ± 0.079 kcal/mol
SAGGSAGGSAGGMLLSPEEAEKLAAELKAKENVTIKVTPEPSPGKVKVEIIKTKGPKLVSAGGSAGGSAGGS [r10_402_JUSTAS] | 0.54 ± 0.061 kcal/mol | -0.0172 ± 0.17 kcal/mol | 0.418 ± 0.16 kcal/mol
SAGGSMPTLKPDEILTLSSTTEPLPSGGLRGRTVTLKKIPGTGKFVTITKYSYQPPDGPITSATEILLSAGG [r13_263_JUSTAS] | 0.585 ± 0.26 kcal/mol | -0.538 ± 0.48 kcal/mol | 0.238 ± 0.15 kcal/mol
SAGGMVLVIVSDLKPGELNEIIEKLKKEGLEVKLFLPNGEEIDADPNIEDLPEDVPVVLLVRHPDKSSAGGS [r16_31_TrMRF] | 2.494 ± 0.017 kcal/mol | 1.87 ± 0.079 kcal/mol | 2.35 ± 0.053 kcal/mol
SAGGMYKVKIYFEDTKEEIEIEASAEEVLEAIKNGDLDALKKLFPGAKIVKIEVEKVEPEPEEEEEEESAGG [r13_629_TrROS_Hall] | 3.48 ± 0.23 kcal/mol | 3.33 ± 0.27 kcal/mol | 3.44 ± 0.29 kcal/mol
SMYVIETSANKTYTVNVPPDGLVTITYPDGSTETRKFTSEEDLEAFAEELSKKYPDAPATIKPVPLEELGSA [r9_1206_JUSTAS] | 0.473 ± 0.26 kcal/mol | 1.21 ± 0.11 kcal/mol | 0.959 ± 0.25 kcal/mol

Sequence | folding stability dG unfold [1] | folding stability dG unfold [2] | folding stability dG unfold [3]
SAIPINLPPGDKVKITFRNPDGSRMEIEFDPENGKWKVKMRPNDGKKQEQTIPAGNLDDLPPGVYSIEPVSA [r9_1110_TrROS] | 1.78 ± 0.27 kcal/mol | 1.08 ± 0.16 kcal/mol | 1.33 ± 0.26 kcal/mol
SAGGSAGGSAGGHMVMITITIPIKKGAEIKFGDWDIKVPPGEQIQITIMIPVPPPDDDKSAGGSAGGSAGGS [r10_949_TrROS] | 2.8 ± 0.21 kcal/mol | 2.91 ± 0.16 kcal/mol | 2.79 ± 0.3 kcal/mol
SPQNLVRIAEIKVELKLDGKKYIITIEVYRPPDSDEVIVRVKVIDPSSDKSSPELEKIAKELEKKIEEELKS [r1_229_JUSTAS] | 4.09 ± 0.1 kcal/mol | 2.53 ± 0.19 kcal/mol | 3.54 ± 0.18 kcal/mol
SAGGSAGGPPVEERELTLPDGTRLTITRYPDSYTVEVTLPDGTVETRTYPDVTPEEAVAAVKAASAGGSAGG [r6_459_JUSTAS] | 1.927 ± 0.013 kcal/mol | 1.68 ± 0.043 kcal/mol | 1.85 ± 0.051 kcal/mol
SAGGPKKAIEILKKEGFTIKSVDPKKKKVIATPKETDIPIEIYVIGDDKVLIVEYLKGKPIIKEFKKSAGGS [r16_197_TrMRF] | 0.741 ± 0.12 kcal/mol | 0.834 ± 0.04 kcal/mol | 0.829 ± 0.15 kcal/mol
SAGGSEDRYLVHVLVRFPDELRELYLEARSPEEVERSVRRAIEELYPERLEDVEVVVFARPVSEPLSAGGSA [r2_111_TrMRF] | 1.91 ± 0.081 kcal/mol | 2.38 ± 0.038 kcal/mol | 2.14 ± 0.061 kcal/mol
SAGGKTIEVWFLFPPGMPPEEVASTIAKLLPPGFKIDVEILEVQPDPGGEDYIIFKATIYYPDDGQPISAGG [r13_12_TrROS] | 4.68 ± 0.16 kcal/mol | 3.34 ± 0.15 kcal/mol | 4.26 ± 0.25 kcal/mol
SAGGSAGGSAGGSSDIVVTSETLPGPTRLVRITIPEKGETIELTLPASESIEQAVALLLSAGGSAGGSAGGS [r4_393_JUSTAS] | 0.0828 ± 0.4 kcal/mol | 0.253 ± 0.1 kcal/mol | 0.381 ± 0.16 kcal/mol
SAGGMSLHIPLPANNEELAEELAEELRDLYAAIPGTPGEVEVDIEPTPEGGYRLIVRFPDHVDEIPASAGGS [r16_356_TrMRF] | 1.19 ± 0.11 kcal/mol | 1.3 ± 0.014 kcal/mol | 1.34 ± 0.073 kcal/mol
SAGGPGFQRYPYTLELPDGRKITVEYWRMGDNPYVQIDIRHDGEPLGTIHVPVPSPDQIEDAAKDIISAGGS [r16_55_TrROS] | 1.78 ± 0.054 kcal/mol | 1.18 ± 0.057 kcal/mol | 1.58 ± 0.072 kcal/mol
SAGGSAGGSAGGGMESKTTVTEEFSPEEVKTVTTVTTYPDGSVTETPENVKVPPGALAGSAGGSAGGSAGGS [r10_280_JUSTAS] | 1.92 ± 0.13 kcal/mol | 0.1 ± 0.053 kcal/mol | 1.49 ± 0.11 kcal/mol
SAGGSAMLENLPELDIKIKVEYKAEILPDGSLLIPAKIELEIGDKKFEFEAKILINPNGEITIEIGSAGGSA [r15_891_TrMRF] | 2.45 ± 0.31 kcal/mol | 2.97 ± 0.26 kcal/mol | 2.96 ± 0.31 kcal/mol
SAGGSAGGSKKVEVEILLLLPESTTEEEAKALAEELAEKIKEATPADDVEVKVVILKVPKNALSAGGSAGGS [r12_522_TrMRF] | 1.89 ± 0.048 kcal/mol | 2 ± 0.12 kcal/mol | 1.92 ± 0.21 kcal/mol
SAGGSAMYKVEVTATTSSSSTPYPLEMDFETEEEAKERVKKYLEEKYGDPISSIETKIEPVEPGLESAGGSA [r15_670_JUSTAS] | -0.645 ± 0.57 kcal/mol | -0.314 ± 0.21 kcal/mol | -0.234 ± 0.36 kcal/mol
SAGGSAPARIVLPGGRTRTLRLSEISPELLAAFPDVLVRLPGGEVRRLPADTLLSLEGDYTLVVPGSAGGSA [r15_733_TrMRF] | 0.573 ± 0.12 kcal/mol | -0.262 ± 0.18 kcal/mol | 0.335 ± 0.099 kcal/mol
SAKTVTLKVTLEIEINGVRVKVEATLTLELDENGELKLTLELKIEIEPAPPPKEVKLTEEEKKKLEELKSAG [r14_442_TrROS_Hall] | 3.79 ± 0.2 kcal/mol | 2.44 ± 0.23 kcal/mol | 3.25 ± 0.69 kcal/mol
SAGGSAGGSAPVAYTITITYRDPDGSTRTLTLTFPNLTPEEAKEAAEALPIPASVVSIDITKASAGGSAGGS [r12_886_JUSTAS] | 3.745 ± 0.035 kcal/mol | 2.24 ± 0.059 kcal/mol | 3.29 ± 0.082 kcal/mol
SAGGSAGGSWITPEWIEEIARYLARELGIDDVKIEVERRPDGYVTVEIRNPANGRKVEITVPWSAGGSAGGS [r12_1000_TrROS] | 3.06 ± 0.1 kcal/mol | 3.38 ± 0.14 kcal/mol | 3.16 ± 0.19 kcal/mol
SAGGPVETPGPHPLRPVPVVEPKKVVVTYPDLSPEEAAALAAELEAQGATTSFDPATGTLTVTLTGLSAGGS [r16_765_JUSTAS] | 3 ± 0.038 kcal/mol | 1.12 ± 0.043 kcal/mol | 2.58 ± 0.072 kcal/mol
SAGGSEKVKIEIPFRHPEDGEPIFPVRIEYEKPPNGDYKLDIEIDNFPPGMKPSPAAKDAIEEFIKSAGGSA [r2_7_TrROS] | 1.29 ± 0.052 kcal/mol | 0.588 ± 0.07 kcal/mol | 0.956 ± 0.19 kcal/mol
SAGGSAGGKGGKPKIKLEPINTNPNGWQTFRFEVTPEAIDDLMDDFPNVQVERHPGEMYITVRNSAGGSAGG [r6_395_TrROS] | -0.0427 ± 0.39 kcal/mol | -0.418 ± 0.56 kcal/mol | -0.104 ± 0.23 kcal/mol
